This note sets out measurements from article PMC8437784 (The Journal of Biological Chemistry, 2020).

First the molecules themselves.
B1: Recombinant N-terminal His6-tagged TRF1 (from human) (natural protein, UniProt P54274 1-439, looked up)
chain: MAEDVSSAAPSPRGCADGRDADPTEEQMAETERNDEEQFECQELLECQVQVGAPEEEEEEEEDAGLVAEAEAVAAGWMLDFLCLSLCRAFRDGRSEDFRRTRNSAEAIIHGLSSLTACQLRTIYICQFLTRIAAGKTLDAQFENDERITPLESALMIWGSIEKEHDKLHEEIQNLIKIQAIAVCMENGNFKEAEEVFERIFGDPNSHMPFKSKLLMIISQKDTFHSFFQHFSYNHMMEKIKSYVNYVLSEKSSTFLMKAAAKVVESKRTRTITSQDKPSGNDVEMETEANLDTRKSVSDKQSAVTESSEGTVSLLRSHKNLFLSKLQHGTQQQDLNKKERRVGTPQSTKKKKESRRATESRIPVSKSQPVTPEKHRARKRQAWLWEEDKNLRSGVRKYGEGNWSKILLHYKFNNRTSVMLKDRWRTMKKLKLISSDSED

Data set [1] concerns the target T1, N-terminal HA-tagged TIN2L (HA-TIN2L, 1-451 aa) (human, UniProt Q9BSI4-1 1-451).
T1 sequence (looked up): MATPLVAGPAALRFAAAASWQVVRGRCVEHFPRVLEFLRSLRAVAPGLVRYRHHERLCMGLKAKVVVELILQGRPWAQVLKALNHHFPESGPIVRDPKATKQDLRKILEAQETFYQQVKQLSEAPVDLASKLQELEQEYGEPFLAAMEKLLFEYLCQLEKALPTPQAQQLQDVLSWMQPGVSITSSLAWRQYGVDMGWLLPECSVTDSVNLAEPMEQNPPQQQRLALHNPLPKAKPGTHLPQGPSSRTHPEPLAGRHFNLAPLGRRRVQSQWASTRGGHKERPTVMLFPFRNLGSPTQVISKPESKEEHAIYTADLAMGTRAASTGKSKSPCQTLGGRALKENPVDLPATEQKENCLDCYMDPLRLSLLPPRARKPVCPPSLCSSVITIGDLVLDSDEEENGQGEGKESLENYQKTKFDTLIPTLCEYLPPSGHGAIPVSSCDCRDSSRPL
The data set is described as follows: DNA tightrope assay.

The target of data set [2] is T2, Recombinant N-terminal His6-tagged TRF1 (from human) (human), P54274.
T2 chain: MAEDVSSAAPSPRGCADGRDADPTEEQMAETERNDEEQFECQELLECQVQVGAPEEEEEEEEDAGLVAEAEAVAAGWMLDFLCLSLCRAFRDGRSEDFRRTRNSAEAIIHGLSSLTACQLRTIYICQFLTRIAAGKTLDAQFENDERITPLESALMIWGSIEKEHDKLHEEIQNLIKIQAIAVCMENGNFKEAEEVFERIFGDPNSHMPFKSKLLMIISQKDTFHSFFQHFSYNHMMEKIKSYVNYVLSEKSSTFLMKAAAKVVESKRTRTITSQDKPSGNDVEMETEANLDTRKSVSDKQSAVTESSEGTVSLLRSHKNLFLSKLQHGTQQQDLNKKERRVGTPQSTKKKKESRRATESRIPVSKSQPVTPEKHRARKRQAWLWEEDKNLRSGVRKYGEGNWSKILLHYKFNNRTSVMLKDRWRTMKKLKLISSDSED
Kind of data set: AFM volume analysis. Conditions: remark: other sources report otherwise.

In another data set the target is TRF1;TIN2L (human;human?, UniProt P54274;Q9BSI4 1-439;1-451, |). Kind of data set: EMSA. On the technique in general: A gel shift assay detects complexes by their altered migration in electrophoresis.
The next data set concerns the target TRF1;TIN2S (human;human?, UniProt P54274;Q9BSI4-2 1-439;1-354, |). The data set is described as follows: EMSA.
For a further data set, the target named is TRF1 (human, UniProt P54274 1-439). Kind of data set: EMSA.
The target in the next data set is T3, TIN2S (UniProt Q9BSI4-2 1-354).
T3 sequence: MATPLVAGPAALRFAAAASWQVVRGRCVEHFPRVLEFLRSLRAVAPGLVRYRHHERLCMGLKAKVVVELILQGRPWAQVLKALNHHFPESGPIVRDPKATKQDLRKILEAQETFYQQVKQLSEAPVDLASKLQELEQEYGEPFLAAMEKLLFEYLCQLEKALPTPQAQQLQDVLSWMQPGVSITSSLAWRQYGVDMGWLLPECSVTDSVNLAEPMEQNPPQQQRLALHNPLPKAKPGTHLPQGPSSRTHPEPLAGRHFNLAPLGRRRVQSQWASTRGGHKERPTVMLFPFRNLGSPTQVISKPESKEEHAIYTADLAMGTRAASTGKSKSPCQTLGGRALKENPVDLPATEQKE
The data set is described as follows: EMSA.

The target of the next data set is T4, TIN2L (UniProt Q9BSI4 1-451).
T4 sequence: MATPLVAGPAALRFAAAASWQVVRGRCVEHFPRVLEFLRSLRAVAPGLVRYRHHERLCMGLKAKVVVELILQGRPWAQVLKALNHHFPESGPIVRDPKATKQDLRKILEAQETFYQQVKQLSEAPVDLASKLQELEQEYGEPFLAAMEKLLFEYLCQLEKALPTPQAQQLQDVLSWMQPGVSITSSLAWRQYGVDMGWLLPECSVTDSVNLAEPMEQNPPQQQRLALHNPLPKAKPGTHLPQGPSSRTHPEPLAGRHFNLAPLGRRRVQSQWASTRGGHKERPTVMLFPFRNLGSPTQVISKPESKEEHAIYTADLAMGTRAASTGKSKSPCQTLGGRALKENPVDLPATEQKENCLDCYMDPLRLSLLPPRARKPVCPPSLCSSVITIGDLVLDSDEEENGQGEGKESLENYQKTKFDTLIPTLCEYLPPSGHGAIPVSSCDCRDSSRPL
Kind of data set: EMSA.

Data set [3] deals with B1. The data set is described as follows: DNA tightrope assay.

As for B1, the binding result in data set [1] is reported as “binds”. Besides, in data set [2], the stoichiometry N came to 2.

B2: 48 bp telomeric dsDNA, 3 TTAGGG (dsDNA)
DNA 1: TTAGGGTTAGGGTTAGGGATGTCCAGCAAGCCAGAATTCGGCAGCGTA
DNA 2: TACGCTGCCGAATTCTGGCTTGCTGGACATCCCTAACCCTAACCCTAA
Consider B2, for which the binding result with TRF1;TIN2L is “binds”; with TRF1;TIN2S, “binds”; with TRF1, “binds”; in the data set with TIN2S, “no binding”; with TIN2L it was “no binding”.

B3: N-terminal HA-tagged TIN2S (HA-TIN2S, 1-354 aa) (natural protein, human, UniProt Q9BSI4-2 1-354, looked up)
chain: MATPLVAGPAALRFAAAASWQVVRGRCVEHFPRVLEFLRSLRAVAPGLVRYRHHERLCMGLKAKVVVELILQGRPWAQVLKALNHHFPESGPIVRDPKATKQDLRKILEAQETFYQQVKQLSEAPVDLASKLQELEQEYGEPFLAAMEKLLFEYLCQLEKALPTPQAQQLQDVLSWMQPGVSITSSLAWRQYGVDMGWLLPECSVTDSVNLAEPMEQNPPQQQRLALHNPLPKAKPGTHLPQGPSSRTHPEPLAGRHFNLAPLGRRRVQSQWASTRGGHKERPTVMLFPFRNLGSPTQVISKPESKEEHAIYTADLAMGTRAASTGKSKSPCQTLGGRALKENPVDLPATEQKE
With B3, the binding result in data set [3] is “binds”.

A word on the stoichiometry N: it is a count of units in the complex or per binding partner.
